Where two headings read alike, the source gives them in different places.
Legend:
[1] = target: Cynomolgus Monkey CD3 epsilon protein (Cynomolgus monkey) (UniProt Q95LI5); test: ELISA, antigen coated on plate
[2] = target: Human CD3 epsilon (CD3epsilon) protein (His Tag) (human) (UniProt P07766); test: ELISA, antigen coated on plate
[3] = target: mouse CD3epsilon protein (mouse) (UniProt P22646); test: ELISA, antigen coated on plate
[4] = target: human CD3 expressed on cells (Jurkat cells; human CD4 T cells) (human) (UniProt P07766); test: flow cytometry on Jurkat cells
Chain of human CD3 expressed on cells (Jurkat cells; human CD4 T cells) (human) (P07766 23-207): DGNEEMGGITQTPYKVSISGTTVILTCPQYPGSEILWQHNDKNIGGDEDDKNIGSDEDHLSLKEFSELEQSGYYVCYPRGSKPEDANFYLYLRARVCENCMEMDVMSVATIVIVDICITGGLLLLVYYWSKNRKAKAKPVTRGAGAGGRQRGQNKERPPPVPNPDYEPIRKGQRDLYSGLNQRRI

[5] = target: human CD3 expressed on cells (Jurkat cells; human CD4 T cells) (human) (UniProt P07766); test: flow cytometry on human CD4 T cells
[6] = target: human CD3 expressed on cells (Jurkat cells; human CD4 T cells) (human) (UniProt P07766); test: flow cytometry on Jurkat cells, one site saturation fit
[7] = target: human CD3 expressed on cells (Jurkat cells; human CD4 T cells) (human) (UniProt P07766); test: as above; remark: listed apart in the source

Chain of Human CD3 epsilon (CD3epsilon) protein (His Tag) (human) (P07766 23-126): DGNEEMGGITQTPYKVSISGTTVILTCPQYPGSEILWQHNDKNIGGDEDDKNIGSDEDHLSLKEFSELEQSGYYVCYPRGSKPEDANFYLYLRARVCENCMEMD
Chain of Cynomolgus Monkey CD3 epsilon protein (Cynomolgus monkey) (Q95LI5 22-117 limits assumed): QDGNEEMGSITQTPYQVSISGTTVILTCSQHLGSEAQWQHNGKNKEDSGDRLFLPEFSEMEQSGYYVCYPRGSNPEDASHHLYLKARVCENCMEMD
Chain of mouse CD3epsilon protein (mouse) (P22646 22-108 limits assumed): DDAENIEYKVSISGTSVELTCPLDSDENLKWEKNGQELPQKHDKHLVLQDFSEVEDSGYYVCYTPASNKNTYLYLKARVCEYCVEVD

ELISA A450 [1] [A450]	ELISA A450 [2] [A450]	ELISA A450 [3] [A450]	EC50 [4] [nM]	EC50 [5] [nM]	Best fit-Bmax [6]	Kd [6] [nM]	Best fit-Bmax [7]	Kd [7] [nM]	EC50 [2] [nM]	Substance
0.052	0.048	0.24	0.2	0.202	9.41e-11	0.129	6.06e-12	0.0277		Benchmark antibody OKT3
									0.186	WBP331-BMK1 (UCHT1) (antibody)
0.046	0.046	0.179								Negative Control (Table 7)

Source: patent US20200299384A1
